{
  "source": "patent US20200299408A1",
  "about": "(Genentech, published 2020)",
  "key": {"human HER2 on cells [1]": {"target": "T1, human HER2 on cells (human, UniProt P04626 23-1255)", "assay": "cell-based or functional assay"}, "[2]": {"target": "T2, HER2 extracellular domain (ECD) (UniProt P04626 23-652, limits assumed)", "T2 construct": "extracellular domain; also called soluble HER2 extracellular domain; HER2 ECD", "assay": "HER2 KD relative to 4D5 (WT); assay not stated"}, "[3]": {"target": "T2, HER2 extracellular domain (ECD)", "assay": "HER2 binding affinity of the HER2 arm; assay and form of HER2 not stated on the sheet or in the legend"}, "human CD3 on T cells": {"target": "T3, human CD3 on T cells (human, UniProt P07766 22-207)", "T3 construct": "whole, on cells; On cells CD3ε stands in the CD3/TCR complex; also called CD3 antigen; CD3ε", "assay": "FACS on Jurkat cells (CD3); EC50 table for the curves of FIGS. 21A-21B; source E. coli", "experimental": "(§1) Binding affinities for the each of the CD3/CD20 TDBs were tested by Biacore or FACS analysis, as described above for the anti-CD3 antibodies. Briefly, for Biacore binding assays, human CD3εγ was immobilized on Biacore Series S CM5 sensor chip using the amine coupling kit from Biacore and CD3/CD20 TDBs or Fab variants thereof were in the flow through. For FACS binding assays, either Bjab cells (for B cell antigens) or Jurkat cells (for CD3 antigen) were incubated with various concentrations of TDB antibodies at 4° C. for 30 minutes, then cells were washed and incubated with 2nd antibody (anti-huIgG-PE; BD Bioscience) for another 15 minutes, before cells were washed again and ready for FACS analysis."}, "[4]": {"target": "T4, single chain human CD3ε-26mer-CD3γ (CD3εγ) (human)", "T4 construct": "also called human CD3εγ", "T4 chain": "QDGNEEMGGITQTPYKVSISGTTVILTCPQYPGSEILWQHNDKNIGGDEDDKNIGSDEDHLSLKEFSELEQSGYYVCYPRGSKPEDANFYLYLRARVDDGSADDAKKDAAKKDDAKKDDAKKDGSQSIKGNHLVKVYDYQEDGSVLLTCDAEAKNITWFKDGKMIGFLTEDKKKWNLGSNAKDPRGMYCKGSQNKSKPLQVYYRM", "assay": "Biacore, human CD3εγ on chip, TDB in flow through", "experimental": "as §1"}, "human HER2 on cells [5]": {"target": "T1, human HER2 on cells", "assay": "KD (nM) box at the right of the FACS panels; method and antigen form are not stated on the sheet; taken as affinity of the HER2 arm, since the three TDBs differ only in it"}, "murine CD3": {"target": "T5, murine CD3 (mouse, UniProt P22646 22-189)", "T5 construct": "also called mouse CD3", "T5 sequence (P22646 22-189)": "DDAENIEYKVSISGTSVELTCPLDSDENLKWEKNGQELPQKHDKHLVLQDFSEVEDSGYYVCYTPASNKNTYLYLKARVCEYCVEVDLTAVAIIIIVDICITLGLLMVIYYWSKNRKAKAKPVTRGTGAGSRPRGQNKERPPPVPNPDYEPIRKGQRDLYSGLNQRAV", "assay": "Biacore, monovalent KD of the CD3 arm; CD3 antigen not named on the sheet (reactivity mouse)"}},
  "note": "Several values for one entry are separate records, joined by “and”; a condition that tells them apart may be missing. Equal values may be shown once.",
  "data": [
    {"binder": "hu4D5.Y100A (bispecific antibody, V domains shown, not the same molecule as m28, which has the UCHT1v9 arm; also called hu4D5.Y100A-40G5c HER2-TDB) VH 1: not shown VL 1: not shown VH 2: EVQLVQSGAEVKKPGASVKVSCKASGYTFTNYYIHWVRQAPGQGLEWIGWIYPGDGNTKYNEKFKGRATLTADTSTSTAYLELSSLRSEDTAVYYCARDSYSNYYFDYWGQGTLVTVSS VL 2: DIVMTQSPDSLAVSLGERATINCKSSQSLLNSRTRKNYLAWYQQKPGQPPKLLIYWASTRESGVPDRFSGSGSGTDFTLTISSLQAEDVAVYYCTQSFILRTFGQGTKVEIK", "values": [
      {"measurement": "EC50 of SKBR3 target cell killing", "setting": "human HER2 on cells [1]", "result": "> 10", "unit": "µg/mL"},
      {"measurement": "KD fold", "setting": "[2]", "result": 120, "unit": "fold"},
      {"measurement": "Kd", "setting": "[3]", "result": 60, "unit": "nM"}
    ]},
    {"binder": "40G5c Ecoli (bispecific antibody, V domains shown, E. coli-produced (aglycosylated) full-length knob-into-hole IgG; constant regions are not in the letters., E. coli material, aglycosylated; also called CD3/CD20 TDB 2H7v16/40G5c produced in E. coli) VH 1: EVQLVESGGGLVQPGGSLRLSCAASGYTFTSYNMHWVRQAPGKGLEWVGAIYPGNGDTSYNQKFKGRFTISVDKSKNTLYLQMNSLRAEDTAVYYCARVVYYSNSYWYFDVWGQGTLVTVSS VL 1: DIQMTQSPSSLSASVGDRVTITCRASSSVSYMHWYQQKPGKAPKPLIYAPSNLASGVPSRFSGSGSGTDFTLTISSLQPEDFATYYCQQWSFNPPTFGQGTKVEIK VH 2: EVQLVQSGAEVKKPGASVKVSCKASGYTFTNYYIHWVRQAPGQGLEWIGWIYPGDGNTKYNEKFKGRATLTADTSTSTAYLELSSLRSEDTAVYYCARDSYSNYYFDYWGQGTLVTVSS VL 2: DIVMTQSPDSLAVSLGERATINCKSSQSLLNSRTRKNYLAWYQQKPGQPPKLLIYWASTRESGVPDRFSGSGSGTDFTLTISSLQAEDVAVYYCTQSFILRTFGQGTKVEIK", "values": [
      {"measurement": "EC50", "setting": "human CD3 on T cells", "result": "1.85 µg/mL and ~12 nM"},
      {"measurement": "Kd", "setting": "[4]", "result": 71.5, "unit": "nM"},
      {"measurement": "koff", "setting": "[4]", "result": 0.0256, "unit": "s⁻¹"},
      {"measurement": "kon", "setting": "[4]", "result": 358000, "unit": "M⁻¹ s⁻¹"}
    ]},
    {"binder": "hu4D5.Y100A/UCHT1v9 TDB (bispecific antibody, V domains shown, also called hu4D5.Y100A-TDB) VH 1: not shown VL 1: not shown VH 2: EVQLVESGGGLVQPGGSLRLSCAASGYSFTGYTMNWVRQAPGKDLEWVALINPYKGVSTYNQKFKDRFTISVDKSKNTAYLQMNSLRAEDTAVYYCARSGYYGDSDWYFDVWGQGTLVTVSS VL 2: DIQMTQSPSSLSASVGDRVTITCRASQDIRNYLNWYQQKPGKAPKLLIYYTSRLESGVPSRFSGSGSGTDYTLTISSLQPEDFATYYCQQGNTLPWTFGQGTKLELK", "values": [
      {"measurement": "Kd", "setting": "human HER2 on cells [5]", "result": 190, "unit": "nM"}
    ]},
    {"binder": "2C11 (antibody, V domains shown) VH: EVQLVESGGGLVQPGKSLKLSCEASGFTFSGYGMHWVRQAPGRGLESVAYITSSSINIKYADAVKGRFTVSRDNAKNLLFLQMNILKSEDTAMYYCARFDWDKNYWGQGTMVTVSS VL: DIQMTQSPSSLPASLGDRVTINCQASQDISNYLNWYQQKPGKAPKLLIYYTNKLADGVPSRFSGSGSGRDSSFTISSLESEDIGSYYCQQYYNYPWTFGPGTKLEIK", "values": [
      {"measurement": "Kd", "setting": "murine CD3", "result": 22, "unit": "nM"}
    ]}
  ]
}
